# Several values for one entry are separate records, joined by “and”; a condition that tells them apart may be missing. Equal values may be shown once.
# Key:
# platelets = experiment: Platelet count in dogs; format: in vivo; conditions: dog, weekly ascending doses
# OCI-LY10 xenograft = OCI-LY10 xenograft efficacy and survival; format: in vivo, C.B-17 SCID mouse; set-up: OCI-LY10 xenograft efficacy, individual animals: unit not given here; conditions: for OCI-LY10 xenograft efficacy, individual animals: AZD0466 103 mg/kg (30mg/kg AZD4320)
# Experimental: Female C.B.−17 SCID mice were purchased from Charles River Laboratories. Mice were 5–8 weeks old at the time of tumour implantation. All xenograft studies were conducted at our Association for the Assessment and Accreditation of Laboratory Animal Care accredited facility in Waltham, MA in accordance with ethical regulations described in the guidelines established by the internal Institutional Animal Care and Use Committee. The dendrimer conjugates were formulated in citrate/phosphate buffer pH 5.0, diluted 1:10 with 5% glucose containing 1% w/v Kolliphor HS15, and AZD4320 was formulated in 30% HP-β-CD and dosed as a weekly intravenous (IV) administration at a volume of 5 ml/kg at the indicated doses. Five million RS4;11, five million SUDHL-4 or five million OCI-LY-10 cells were injected subcutaneously in the right flank of mice in a volume of 0.1 ml. Tumour volumes (measured by caliper), animal body weight, and tumor condition were recorded twice weekly for the duration of the study. The tumour volume was calculated (taking length to be the longest diameter across the tumour and width to be the corresponding perpendicular diameter) using the formula: length (mm) x width (mm)^2/0.52. For efficacy studies, mice were randomized based on tumour volumes using stratified sampling and enrolled into control and treatment groups. Tumour growth inhibition from the start of treatment was quantified by measuring the difference in tumour volume between control and treated groups. Survival analysis was evaluated using Mantel-Cox test. Tumours were also taken for bioanalysis.
# [1] = In vitro release of AZD4320 from dendrimer conjugates in PBS pH 7.4, 37 °C; conditions: for Cummulative Release % / Mean % Released: PBS 37 °C
# Experimental: In vitro release half-life was calculated by least squares fitting to a 1st order release model.
# AZD4320 release kinetics were determined in vitro under physiological conditions.
# Nanoparticles were suspended in phosphate buffered saline (PBS) pH7.4 or rat plasma with 5%
# HEPES in HPLC vials and sample temperature maintained to 37 °C using a water bath with
# continuous stirring of the sample provided by iChem explorer unit. Periodically, 5-10 µL of
# sample was injected onto the column (Acquity UPLC BEH shield RP18 1.7 µm, 4.6 x 30 mm,
# Waters), bracketed by DMA to re-dissolve any precipitated AZD4320. The percent release was
# calculated by comparing unconjugated AZD4320 peak area to total unconjugated + dendrimer-
# conjugated AZD4320 peak areas. The half-life was calculated by least squares fitting to a 1st
substance,measurement,setting,value
AZD4320-MIDA-PEG2100 [AZD0466],effect on platelet count,platelets,reversible and dose-dependent decrease in platelet count
same,"OCI-LY10 xenograft efficacy, individual animals",OCI-LY10 xenograft; day 18,193 and 170 and 155 and 173 and 235 and 111 and 163 and 131
same,"OCI-LY10 xenograft efficacy, individual animals",OCI-LY10 xenograft; day 21,363 and 334 and 195 and 394 and 490 and 191 and 262 and 142
same,"OCI-LY10 xenograft efficacy, individual animals",OCI-LY10 xenograft; day 25,214 and 151 and 62 and 129 and 351 and 181 and 222 and 188
same,"OCI-LY10 xenograft efficacy, individual animals",OCI-LY10 xenograft; day 28,475 and 406 and 118 and 241 and 485 and 190 and 184 and 194
same,"OCI-LY10 xenograft efficacy, individual animals",OCI-LY10 xenograft; day 32,410 and 443 and 252 and 338 and 536 and 215 and 401 and 301
same,"OCI-LY10 xenograft efficacy, individual animals",OCI-LY10 xenograft; day 35,664 and 595 and 309 and 391 and 667 and 265 and 496 and 262
same,"OCI-LY10 xenograft efficacy, individual animals",OCI-LY10 xenograft; day 39,653 and 578 and 346 and 432 and 638 and 281 and 354 and 330
same,"OCI-LY10 xenograft efficacy, individual animals",OCI-LY10 xenograft; day 42,773 and 918 and 408 and 717 and 707 and 404 and 319 and 272
same,mice with complete regressions,"OCI-LY10 xenograft; OCI-LY10, AZD0466 in combination with acalabrutinib",8/8
same,monotherapy activity,OCI-LY10 xenograft; OCI-LY10 DLBCL model,neither agent showed any demonstrable monotherapy activity
same,Cummulative Release %,"[1]; 0.75 h, Replicate 1",2.01%
same,Cummulative Release %,"[1]; 0.90 h, Replicate 2",2.72%
same,Cummulative Release %,"[1]; 1.05 h, Replicate 3",2.87%
same,Cummulative Release %,"[1]; 1.67 h, Replicate 1",3.95%
same,Cummulative Release %,"[1]; 1.82 h, Replicate 2",4.63%
same,Cummulative Release %,"[1]; 1.97 h, Replicate 3",5.12%
same,Cummulative Release %,"[1]; 2.60 h, Replicate 1",6.37%
same,Cummulative Release %,"[1]; 2.75 h, Replicate 2",7.07%
same,Cummulative Release %,"[1]; 2.90 h, Replicate 3",7.57%
same,Cummulative Release %,"[1]; 3.52 h, Replicate 1",8.48%
same,Cummulative Release %,"[1]; 3.67 h, Replicate 2",9.50%
same,Cummulative Release %,"[1]; 3.83 h, Replicate 3",9.95%
same,Cummulative Release %,"[1]; 4.45 h, Replicate 1",10.66%
same,Cummulative Release %,"[1]; 4.60 h, Replicate 2",11.87%
same,Cummulative Release %,"[1]; 4.75 h, Replicate 3",12.24%
same,Cummulative Release %,"[1]; 5.37 h, Replicate 1",12.82%
same,Cummulative Release %,"[1]; 5.52 h, Replicate 2",13.72%
same,Cummulative Release %,"[1]; 5.68 h, Replicate 3",14.33%
same,Cummulative Release %,"[1]; 6.30 h, Replicate 1",15.04%
same,Cummulative Release %,"[1]; 6.45 h, Replicate 2",16.29%
same,Cummulative Release %,"[1]; 6.60 h, Replicate 3",15.86%
same,Cummulative Release %,"[1]; 7.22 h, Replicate 1",15.94%
same,Cummulative Release %,"[1]; 7.37 h, Replicate 2",17.47%
same,Cummulative Release %,"[1]; 7.53 h, Replicate 3",17.99%
same,Cummulative Release %,"[1]; 8.15 h, Replicate 1",18.09%
same,Cummulative Release %,"[1]; 8.30 h, Replicate 2",19.34%
same,Cummulative Release %,"[1]; 8.45 h, Replicate 3",19.77%
same,Cummulative Release %,"[1]; 9.07 h, Replicate 1",20.00%
same,Cummulative Release %,"[1]; 9.23 h, Replicate 2",21.33%
same,Cummulative Release %,"[1]; 9.38 h, Replicate 3",21.63%
same,Cummulative Release %,"[1]; 10.00 h, Replicate 1",22.23%
same,Cummulative Release %,"[1]; 10.15 h, Replicate 2",23.21%
same,Cummulative Release %,"[1]; 10.30 h, Replicate 3",23.50%
same,Cummulative Release %,"[1]; 10.92 h, Replicate 1",23.70%
same,Cummulative Release %,"[1]; 11.08 h, Replicate 2",25.81%
same,Cummulative Release %,"[1]; 11.23 h, Replicate 3",25.99%
same,Cummulative Release %,"[1]; 11.85 h, Replicate 1",25.62%
same,Cummulative Release %,"[1]; 12.00 h, Replicate 2",26.79%
same,Cummulative Release %,"[1]; 12.15 h, Replicate 3",27.44%
same,Cummulative Release %,"[1]; 12.77 h, Replicate 1",27.74%
same,Cummulative Release %,"[1]; 12.93 h, Replicate 2",29.41%
same,Cummulative Release %,"[1]; 13.08 h, Replicate 3",29.66%
same,Cummulative Release %,"[1]; 13.70 h, Replicate 1",29.02%
same,Cummulative Release %,"[1]; 13.85 h, Replicate 2",30.77%
same,Cummulative Release %,"[1]; 14.00 h, Replicate 3",31.43%
same,Cummulative Release %,"[1]; 14.63 h, Replicate 1",30.82%
same,Cummulative Release %,"[1]; 14.78 h, Replicate 2",32.39%
same,Cummulative Release %,"[1]; 14.93 h, Replicate 3",33.56%
same,Cummulative Release %,"[1]; 15.55 h, Replicate 1",32.52%
same,Cummulative Release %,"[1]; 15.70 h, Replicate 2",34.45%
same,Cummulative Release %,"[1]; 15.85 h, Replicate 3",35.54%
same,Cummulative Release %,"[1]; 16.48 h, Replicate 1",34.39%
same,Cummulative Release %,"[1]; 16.63 h, Replicate 2",35.86%
same,Cummulative Release %,"[1]; 16.78 h, Replicate 3",36.74%
same,Cummulative Release %,"[1]; 17.40 h, Replicate 1",35.32%
same,Cummulative Release %,"[1]; 17.55 h, Replicate 2",37.92%
same,Cummulative Release %,"[1]; 17.71 h, Replicate 3",39.37%
same,Cummulative Release %,"[1]; 18.33 h, Replicate 1",37.81%
same,Cummulative Release %,"[1]; 18.48 h, Replicate 2",39.44%
same,Cummulative Release %,"[1]; 18.63 h, Replicate 3",41.92%
same,Cummulative Release %,"[1]; 19.25 h, Replicate 1",40.42%
same,Cummulative Release %,"[1]; 19.40 h, Replicate 2",41.10%
same,Cummulative Release %,"[1]; 19.56 h, Replicate 3",42.30%
same,Cummulative Release %,"[1]; 20.18 h, Replicate 1",40.20%
same,Cummulative Release %,"[1]; 20.33 h, Replicate 2",43.40%
same,Cummulative Release %,"[1]; 20.48 h, Replicate 3",44.87%
same,Cummulative Release %,"[1]; 21.10 h, Replicate 1",42.52%
same,Cummulative Release %,"[1]; 21.25 h, Replicate 2",45.67%
same,Cummulative Release %,"[1]; 21.41 h, Replicate 3",46.38%
same,Cummulative Release %,"[1]; 22.03 h, Replicate 1",45.50%
same,Cummulative Release %,"[1]; 22.18 h, Replicate 2",47.56%
same,Cummulative Release %,"[1]; 22.33 h, Replicate 3",48.29%
same,Cummulative Release %,"[1]; 22.95 h, Replicate 1",46.44%
same,Cummulative Release %,"[1]; 23.10 h, Replicate 2",48.78%
same,Cummulative Release %,"[1]; 23.88 h, Replicate 1",47.76%
same,Cummulative Release %,"[1]; 24.03 h, Replicate 2",50.99%
same,Cummulative Release %,"[1]; 24.80 h, Replicate 1",50.26%
same,Cummulative Release %,"[1]; 24.95 h, Replicate 2",53.17%
same,Mean % Released,[1]; mean time 0.90 h,2.53%
same,Mean % Released,[1]; mean time 1.82 h,4.57%
same,Mean % Released,[1]; mean time 2.75 h,7.00%
same,Mean % Released,[1]; mean time 3.67 h,9.31%
same,Mean % Released,[1]; mean time 4.60 h,11.59%
same,Mean % Released,[1]; mean time 5.52 h,13.62%
same,Mean % Released,[1]; mean time 6.45 h,15.73%
same,Mean % Released,[1]; mean time 7.37 h,17.14%
same,Mean % Released,[1]; mean time 8.30 h,19.07%
same,Mean % Released,[1]; mean time 9.23 h,20.98%
same,Mean % Released,[1]; mean time 10.15 h,22.98%
same,Mean % Released,[1]; mean time 11.08 h,25.17%
same,Mean % Released,[1]; mean time 12.00 h,26.61%
same,Mean % Released,[1]; mean time 12.93 h,28.93%
same,Mean % Released,[1]; mean time 13.85 h,30.40%
same,Mean % Released,[1]; mean time 14.78 h,32.26%
same,Mean % Released,[1]; mean time 15.70 h,34.17%
same,Mean % Released,[1]; mean time 16.63 h,35.66%
same,Mean % Released,[1]; mean time 17.55 h,37.54%
same,Mean % Released,[1]; mean time 18.48 h,39.72%
same,Mean % Released,[1]; mean time 19.40 h,41.27%
same,Mean % Released,[1]; mean time 20.33 h,42.83%
same,Mean % Released,[1]; mean time 21.25 h,44.86%
same,Mean % Released,[1]; mean time 22.18 h,47.12%
same,Mean % Released,[1]; mean time 23.03 h,47.61%
same,Mean % Released,[1]; mean time 23.95 h,49.38%
same,Mean % Released,[1]; mean time 24.88 h,51.72%
same,In vitro release half-life (t1/2) of AZD4320,"[1]; PBS pH 7.4, 37 °C, first order fit",25.5 h

# — PMC7835349 (Communications Biology, 2021)
